Assay results as given in patent US20240350646A1, “METHODS AND COMPOSITIONS FOR DELIVERY TO AND ACROSS THE BLOOD BRAIN BARRIER” (NUtech Ventures, priority 2021, published 2024).

Target: T1, human claudin-9 (human, UniProt O95484 1-217, limits assumed)
T1 sequence (looked up): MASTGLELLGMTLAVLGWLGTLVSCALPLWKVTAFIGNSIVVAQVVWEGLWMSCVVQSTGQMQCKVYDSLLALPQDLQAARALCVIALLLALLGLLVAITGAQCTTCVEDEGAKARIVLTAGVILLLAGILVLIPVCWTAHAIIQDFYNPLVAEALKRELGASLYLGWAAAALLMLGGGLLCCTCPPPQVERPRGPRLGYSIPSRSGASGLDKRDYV
Test: MST, sigmoidal dose-response fit (GraphPad Prism) of the FIG. 10A data; fit did not converge [panel B]
Method: FIG. 10C is a graph showing the binding of human claudins 4 and 9 to control NPs monitored using microscale thermophoresis. […] Data fitting for human claudins 3, 4 and 9 were performed using Graph Pad Prism.
Human claudin-1 was expressed and purified as reported previously (Vecchio & Stroud, 2019, PNAS USA, 116:17817-24). MST measurements were performed using a Monolith instrument (NanoTemper Technologies). For experiments with human claudin-1, the assay buffer contained 10 mM Tris HCl, pH 8.0, 100 mM NaCl, 4% glycerol, and 0.04% n-Dodecyl-β-D-Maltopyranoside (β-DDM). NPs and peptides were labeled with AF647 prior to MST analysis as described above. For the binding experiments, the concentration of human claudin-1 was varied from 2.2-73,500 nM and the AF647-labeled C1C2-NP was fixed at 70 nM, while the AF647 labeled NPs and AF647 labeled C1C2 peptide were fixed at 1 and 0.3 μM, respectively. Binding of the AF647 labeled C1C2-NP to human claudin-3, -4, and -9 were tested using 0.4-14000 nM, 0.8-28000 nM, and 0.6-20000 nM, respectively; with the AF647 labeled C1C2-NP fixed at 70 nM. […] All experiments were conducted at 23° C. using the nano-red channel of the Monolith instrument and the data were analyzed by using either Monolith analysis software or Graph Pad Prism, version 9 (Graph Pad Software, San Diego, California).

LogEC50: -0.661
B1: C1C2-NP (C1C2 peptide conjugated to PEG diacid coated ultrasmall Gd nanoparticles) (peptide)
peptide: Ac-SSVSQSTGQIQSKVDSLLNLNSTQATR-NH2
modifications: not fully specified; also: conjugated by EDC-NHS chemistry to PEG diacid on Gd oxide nanoparticle surface (19 peptides per 3.5 nm particle)
notes: The protein part is the C1C2 peptide; the core is not a protein; also called C1C2-NPs; C1C2 NPs
